Assay results as given in patent US20150037340A1 (PEIRRE FABRE MEDICAMENT, published 2015).

How the values were obtained:
[1] = target: T1, recombinant human Axl-Fc (R and D Systems, cat No 154-AL / 154AL/CF) (human, UniProt P30530 26-451); test: competition ELISA: rhAxl-Fc pre-incubated with the antibody, loaded on coated rhGas6 (blocked ligand), bound rhAxl-Fc detected with anti-human IgG-HRP
T1 construct: Bought protein; also called rhAxl-Fc; rh Axl-Fc protein; not shown: human IgG Fc portion (detected with anti-human IgG Fc)
T1 sequence: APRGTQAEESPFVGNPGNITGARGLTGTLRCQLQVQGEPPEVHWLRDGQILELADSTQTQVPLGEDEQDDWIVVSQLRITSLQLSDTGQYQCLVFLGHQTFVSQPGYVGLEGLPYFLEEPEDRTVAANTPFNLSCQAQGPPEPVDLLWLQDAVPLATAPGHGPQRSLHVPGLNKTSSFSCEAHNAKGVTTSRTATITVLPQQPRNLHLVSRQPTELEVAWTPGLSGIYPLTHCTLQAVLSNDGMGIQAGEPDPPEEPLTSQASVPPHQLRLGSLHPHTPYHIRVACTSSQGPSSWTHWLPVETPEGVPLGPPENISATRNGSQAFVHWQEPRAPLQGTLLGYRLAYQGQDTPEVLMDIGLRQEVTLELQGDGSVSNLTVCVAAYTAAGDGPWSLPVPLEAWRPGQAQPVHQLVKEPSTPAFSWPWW
Experimental: To further characterize the 1613F12, Gas6 competition assays were performed. In this assay, the free rhAxl-Fc protein and the 1613F12 are incubated to form antigen-antibody complex and then the complexes are loaded on Gas6-coated surface in the assay plate. The unbound antibody-antigen complexes are washed out before adding enzyme-linked secondary antibody against the human Fc portion of the rhAxl-Fc protein. The substrate is then added and the antigen concentration can be determined by the signal strength elicited by the enzyme-substrate reaction.
Briefly reaction mixture comprising the rhAxl-Fc protein in the presence or not of the anti-Axl Mabs to be tested, are prepared on a separate saturated (0.5% gelatin in PBS 1×) plate. Serial 1: 2 dilutions (starting from 80 μg/ml on 12 columns) of murine anti-Axl antibodies are performed. […] After homogenisation, the competition samples are loaded on Gas6-coated plates with a 6 μg/m rhGas6 solution in PBS (R and D Systems cat No 885-GS-CS/CF). After incubation and several washes, bound rhAxl-Fc proteins are detected using a goat anti-Human IgG-HRP (Jackson, ref. 109-035-098). Once bound, the TMB substrate is added to the plates. The reaction is stopped by addition of 1M H₂SO₄ acid solution and the obtained optical densities read at 450 nm using a microplate reader instrument.

[2] = target: T1, recombinant human Axl-Fc (R and D …); test: sandwich ELISA: plate coated with the antibody, rhAxl-Fc titrated (the axis on the sheet reads 'Ab concentration'), detection with a biotinylated anti-Axl antibody and avidin-HRP
Experimental: First ELISA experiments were realized. In the assay, 96 well plates (Immulon II, Thermo Fisher) were coated with a 5 μg/m of the 1613F12 solution in 1×PBS, overnight at 4° C. […] For the revelation step, a biotinylated-Axl antibody (in house product) was added at 0.85 μg/m for 1 hour at 37° C. This Axl antibody belongs to a distinct epitopic group. Then an avidin-horseradish peroxidase solution at 1/2000° in diluent buffer is added to the wells. Then the TMB substrate solution is added for 5 min. After addition of the peroxydase stop solution, the absorbance at […] was measured with a microplate reader.

[3] = target: T2, human extracellular domain (ECD) of Axl, His-tagged (pCEP[AXL]His6, produced in HEK293E) (human, UniProt P30530 26-451); test: SPR (Biacore X), antibody captured on CM5 chip, Axl ECD as analyte, 1:1 Langmuir model
T2 construct: also called human Axl ECD; rhAxl ECD; not shown: His6 tag
T2 sequence: T1 sequence
Experimental: Briefly, the experiments were realized using a sensor chip CM5 as the biosensor. Rabbit IgGs were immobilized on the flow cells 1 and 2 (FC 1 and FC2) of a CM5 sensor chip at a level of 9300-10000 response units (RU) using amine coupling chemistry to capture antibodies.
Binding is evaluated using multiple cycles. Each cycle of measure is performed using a flow rate of 30 μl/imin in a HBS-EP buffer. Then the Axl antibody to test is captured on the chip for 1 min on FC2 only to reach a mean capture value of 311.8 RU (SD=5.1 RU) for the 1613F12. The analyte (Axl ECD antigen) is injected starting at 200 nM and using two-fold serial dilutions to measure rough ka and kd in real time.
At the end of each cycle, the surfaces are regenerated by injecting a 10 mM glycine hydrochloride pH1.5 solution to eliminate the antibody-antigen complexes and the capture antibody as well. The considered signal corresponds to the difference of the signals observed between FC1 and FC2 (FC2-FC1). Association rates (ka) and dissociation rates (kd) were calculated using a one-to-one Langmuir binding model. The equilibrium dissociation constant (KD) is determined as the […]. The experimental values were analyzed in the Biaevaluation software version 3.0. A χ2 analysis will be performed to assess the accuracy of the data.

B1: 1613F12 antibody (murine form) (antibody, V domains shown)
VH: EVHLQQSGAELVKPGASVKLSCTASGFNIRDTYIHWVKQRPEQGLEWIGRLDPANGHTKYGPNFQGRATMTSDTSSNTAYLQLSSLTSEDTAVYYCARGAYYYGSSGLFYFDYWGQGTTLSVSS
VL: DVQITQSPSYLATSPGETITINCRASKSISKYLAWYQEKPGKTNKLLIYSGSTLQSGVPSRFSGSGSGTDFTLTISSLEPEDFAMYFCQQHHEYPLTFGAGTELELK
notes: Whole murine monoclonal antibody purified from a hybridoma; a murine IgG1 (9G4) serves as its isotype control; also called m1613F12; monoclonal antibody 1613F12 derived from the hybridoma I-4505
IC50 (read off the curve) [1]: ~20 nM
EC50 (read off the curve) [2]: ~0.04 µg/mL
Kd [3]: 2.29 nM
koff [3]: 0.000242 s⁻¹
kon [3]: 106000 M⁻¹ s⁻¹
